Measurements taken from PMC3302758.

Tests used:
[1] = biological target: 14-3-3β (UniProt P31946); test: CFTR IP, 14-3-3β immunoblot; conditions: reference: basal cells; sites S660,S670,S700,S712,S737,S753,S768,S795,S813
[2] = biological target: 14-3-3ε (UniProt P62258); test: CFTR IP, 14-3-3ε immunoblot; conditions: reference: basal cells; sites S660,S670,S700,S712,S737,S753,S768,S795,S813

- fold change [1]: 2.3 fold
- fold change [2]: 3.1 fold
Substance: CFTR (from UniProt P13569) forskolin 10 µM, 15 min
